# Source: patent US20260242735A1
# Assays:
# Assay in all cases: alanine scan, flow cytometry, HEK293-T
# human CD33 A183S (human) = human CD33 A183S (human) (UniProt P20138)
# human CD33 A74S (human) = human CD33 A74S (human) (UniProt P20138)
# human CD33 C101A (human) = human CD33 C101A (human) (UniProt P20138)
# human CD33 D112A (human) = human CD33 D112A (human) (UniProt P20138)
# human CD33 E81A (human) = human CD33 E81A (human) (UniProt P20138)
# human CD33 F177A (human) = human CD33 F177A (human) (UniProt P20138)
# human CD33 F90A (human) = human CD33 F90A (human) (UniProt P20138)
# human CD33 G114A (human) = human CD33 G114A (human) (UniProt P20138)
# human CD33 G151A (human) = human CD33 G151A (human) (UniProt P20138)
# human CD33 G188A (human) = human CD33 G188A (human) (UniProt P20138)
# human CD33 G94A (human) = human CD33 G94A (human) (UniProt P20138)
# human CD33 H57A (human) = human CD33 H57A (human) (UniProt P20138)
# human CD33 I149A (human) = human CD33 I149A (human) (UniProt P20138)
# human CD33 I176A (human) = human CD33 I176A (human) (UniProt P20138)
# human CD33 I47A (human) = human CD33 I47A (human) (UniProt P20138)
# human CD33 K126A (human) = human CD33 K126A (human) (UniProt P20138)
# human CD33 K77A (human) = human CD33 K77A (human) (UniProt P20138)
# human CD33 L141A (human) = human CD33 L141A (human) (UniProt P20138)
# human CD33 L93A (human) = human CD33 L93A (human) (UniProt P20138)
# human CD33 M120A (human) = human CD33 M120A (human) (UniProt P20138)
# human CD33 N100A (human) = human CD33 N100A (human) (UniProt P20138)
# human CD33 N76A (human) = human CD33 N76A (human) (UniProt P20138)
# human CD33 N99A (human) = human CD33 N99A (human) (UniProt P20138)
# human CD33 P145A (human) = human CD33 P145A (human) (UniProt P20138)
# human CD33 P96A (human) = human CD33 P96A (human) (UniProt P20138)
# human CD33 Q133A (human) = human CD33 Q133A (human) (UniProt P20138)
# human CD33 Q80A (human) = human CD33 Q80A (human) (UniProt P20138)
# human CD33 Q87A (human) = human CD33 Q87A (human) (UniProt P20138)
# human CD33 R110A (human) = human CD33 R110A (human) (UniProt P20138)
# human CD33 R111A (human) = human CD33 R111A (human) (UniProt P20138)
# human CD33 R62A (human) = human CD33 R62A (human) (UniProt P20138)
# human CD33 R98A (human) = human CD33 R98A (human) (UniProt P20138)
# human CD33 S128A (human) = human CD33 S128A (human) (UniProt P20138)
# human CD33 S178A (human) = human CD33 S178A (human) (UniProt P20138)
# human CD33 S186A (human) = human CD33 S186A (human) (UniProt P20138)
# human CD33 S195A (human) = human CD33 S195A (human) (UniProt P20138)
# human CD33 T139A (human) = human CD33 T139A (human) (UniProt P20138)
# human CD33 T162A (human) = human CD33 T162A (human) (UniProt P20138)
# human CD33 T185A (human) = human CD33 T185A (human) (UniProt P20138)
# human CD33 T191A (human) = human CD33 T191A (human) (UniProt P20138)
# human CD33 V106A (human) = human CD33 V106A (human) (UniProt P20138)
# human CD33 V136A (human) = human CD33 V136A (human) (UniProt P20138)
# human CD33 V138A (human) = human CD33 V138A (human) (UniProt P20138)
# human CD33 V165A (human) = human CD33 V165A (human) (UniProt P20138)
# human CD33 W60A (human) = human CD33 W60A (human) (UniProt P20138)
# human CD33 W60A (human), sequence (P20138 18-364 W60A limits assumed): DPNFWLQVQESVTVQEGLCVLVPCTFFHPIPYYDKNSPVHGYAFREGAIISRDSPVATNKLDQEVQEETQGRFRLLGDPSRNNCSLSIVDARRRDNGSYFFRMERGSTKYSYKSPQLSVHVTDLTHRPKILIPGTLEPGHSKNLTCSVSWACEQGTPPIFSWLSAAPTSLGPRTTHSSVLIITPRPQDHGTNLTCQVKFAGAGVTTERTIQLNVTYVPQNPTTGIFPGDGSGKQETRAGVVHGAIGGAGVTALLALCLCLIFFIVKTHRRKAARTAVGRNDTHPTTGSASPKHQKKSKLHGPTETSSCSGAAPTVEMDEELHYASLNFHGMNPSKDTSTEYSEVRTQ
# human CD33 K77A (human), sequence (P20138 18-364 K77A limits assumed): as the sequence (P20138 18-364 W60A limits assumed) above, with A43W, K60A counted along it
# human CD33 G151A (human), sequence (P20138 18-364 G151A limits assumed): as the sequence (P20138 18-364 W60A limits assumed) above, with A43W, G134A counted along it
# human CD33 G94A (human), sequence (P20138 18-364 G94A limits assumed): as the sequence (P20138 18-364 W60A limits assumed) above, with A43W, G77A counted along it
# human CD33 R111A (human), sequence (P20138 18-364 R111A limits assumed): as the sequence (P20138 18-364 W60A limits assumed) above, with A43W, R94A counted along it
# human CD33 I47A (human), sequence (P20138 18-364 I47A limits assumed): as the sequence (P20138 18-364 W60A limits assumed) above, with I30A, A43W counted along it
# human CD33 L93A (human), sequence (P20138 18-364 L93A limits assumed): as the sequence (P20138 18-364 W60A limits assumed) above, with A43W, L76A counted along it
# human CD33 N76A (human), sequence (P20138 18-364 N76A limits assumed): as the sequence (P20138 18-364 W60A limits assumed) above, with A43W, N59A counted along it
# human CD33 Q87A (human), sequence (P20138 18-364 Q87A limits assumed): as the sequence (P20138 18-364 W60A limits assumed) above, with A43W, Q70A counted along it
# human CD33 D112A (human), sequence (P20138 18-364 D112A limits assumed): as the sequence (P20138 18-364 W60A limits assumed) above, with A43W, D95A counted along it
# human CD33 A183S (human), sequence (P20138 18-364 A183S limits assumed): as the sequence (P20138 18-364 W60A limits assumed) above, with A43W, A166S counted along it
# human CD33 S178A (human), sequence (P20138 18-364 S178A limits assumed): as the sequence (P20138 18-364 W60A limits assumed) above, with A43W, S161A counted along it
# human CD33 M120A (human), sequence (P20138 18-364 M120A limits assumed): as the sequence (P20138 18-364 W60A limits assumed) above, with A43W, M103A counted along it
# human CD33 L141A (human), sequence (P20138 18-364 L141A limits assumed): as the sequence (P20138 18-364 W60A limits assumed) above, with A43W, L124A counted along it
substance,measurement,setting,value
Refmab #7 (WM53) (antibody),Mean % WT Binding,human CD33 A183S (human),102 % WT binding
same,Mean % WT Binding,human CD33 A74S (human),118 % WT binding
same,Mean % WT Binding,human CD33 C101A (human),1.8 % WT binding
same,Mean % WT Binding,human CD33 D112A (human),47.9 % WT binding
same,Mean % WT Binding,human CD33 E81A (human),98.4 % WT binding
same,Mean % WT Binding,human CD33 F177A (human),74.1 % WT binding
same,Mean % WT Binding,human CD33 F90A (human),83.3 % WT binding
same,Mean % WT Binding,human CD33 G114A (human),94.6 % WT binding
same,Mean % WT Binding,human CD33 G151A (human),121 % WT binding
same,Mean % WT Binding,human CD33 G188A (human),127 % WT binding
same,Mean % WT Binding,human CD33 G94A (human),99.2 % WT binding
same,Mean % WT Binding,human CD33 H57A (human),112 % WT binding
same,Mean % WT Binding,human CD33 I149A (human),96.9 % WT binding
same,Mean % WT Binding,human CD33 I176A (human),103 % WT binding
same,Mean % WT Binding,human CD33 I47A (human),50.2 % WT binding
same,Mean % WT Binding,human CD33 K126A (human),156 % WT binding
same,Mean % WT Binding,human CD33 K77A (human),117 % WT binding
same,Mean % WT Binding,human CD33 L141A (human),118 % WT binding
same,Mean % WT Binding,human CD33 L93A (human),102 % WT binding
same,Mean % WT Binding,human CD33 M120A (human),92 % WT binding
same,Mean % WT Binding,human CD33 N100A (human),128 % WT binding
same,Mean % WT Binding,human CD33 N76A (human),93.9 % WT binding
same,Mean % WT Binding,human CD33 N99A (human),102 % WT binding
same,Mean % WT Binding,human CD33 P145A (human),102 % WT binding
same,Mean % WT Binding,human CD33 P96A (human),98.7 % WT binding
same,Mean % WT Binding,human CD33 Q133A (human),100 % WT binding
same,Mean % WT Binding,human CD33 Q80A (human),124 % WT binding
same,Mean % WT Binding,human CD33 Q87A (human),90.1 % WT binding
same,Mean % WT Binding,human CD33 R110A (human),95.9 % WT binding
same,Mean % WT Binding,human CD33 R111A (human),94 % WT binding
same,Mean % WT Binding,human CD33 R62A (human),114 % WT binding
same,Mean % WT Binding,human CD33 R98A (human),138 % WT binding
same,Mean % WT Binding,human CD33 S128A (human),179 % WT binding
same,Mean % WT Binding,human CD33 S178A (human),106 % WT binding
same,Mean % WT Binding,human CD33 S186A (human),93.4 % WT binding
same,Mean % WT Binding,human CD33 S195A (human),117 % WT binding
same,Mean % WT Binding,human CD33 T139A (human),121 % WT binding
same,Mean % WT Binding,human CD33 T162A (human),103 % WT binding
same,Mean % WT Binding,human CD33 T185A (human),106 % WT binding
same,Mean % WT Binding,human CD33 T191A (human),116 % WT binding
same,Mean % WT Binding,human CD33 V106A (human),126 % WT binding
same,Mean % WT Binding,human CD33 V136A (human),85.9 % WT binding
same,Mean % WT Binding,human CD33 V138A (human),91 % WT binding
same,Mean % WT Binding,human CD33 V165A (human),118 % WT binding
same,Mean % WT Binding,human CD33 W60A (human),2.1 % WT binding
